What was measured:
[1] = molecular target: cytoplasmic dynein 74-kD intermediate chain (mouse (endogenous in J774)) (UniProt O88487); test: co-IP
[2] = molecular target: actin-related protein Arp1 of the dynactin complex (mouse (endogenous in J774)) (UniProt P61164); test: co-IP
UniProt P61164, sequence (P61164 whole entry, one chain of several): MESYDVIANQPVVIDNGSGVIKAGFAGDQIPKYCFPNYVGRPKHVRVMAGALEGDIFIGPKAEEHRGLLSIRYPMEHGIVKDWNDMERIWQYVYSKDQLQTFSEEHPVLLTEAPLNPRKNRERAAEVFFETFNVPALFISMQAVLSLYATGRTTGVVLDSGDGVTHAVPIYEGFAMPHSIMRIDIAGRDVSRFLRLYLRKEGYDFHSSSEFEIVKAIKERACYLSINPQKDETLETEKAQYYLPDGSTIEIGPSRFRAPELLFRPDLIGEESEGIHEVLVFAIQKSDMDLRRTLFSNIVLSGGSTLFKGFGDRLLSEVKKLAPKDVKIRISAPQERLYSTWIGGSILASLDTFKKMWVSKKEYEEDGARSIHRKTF

UniProt O88487, sequence (O88487 whole entry): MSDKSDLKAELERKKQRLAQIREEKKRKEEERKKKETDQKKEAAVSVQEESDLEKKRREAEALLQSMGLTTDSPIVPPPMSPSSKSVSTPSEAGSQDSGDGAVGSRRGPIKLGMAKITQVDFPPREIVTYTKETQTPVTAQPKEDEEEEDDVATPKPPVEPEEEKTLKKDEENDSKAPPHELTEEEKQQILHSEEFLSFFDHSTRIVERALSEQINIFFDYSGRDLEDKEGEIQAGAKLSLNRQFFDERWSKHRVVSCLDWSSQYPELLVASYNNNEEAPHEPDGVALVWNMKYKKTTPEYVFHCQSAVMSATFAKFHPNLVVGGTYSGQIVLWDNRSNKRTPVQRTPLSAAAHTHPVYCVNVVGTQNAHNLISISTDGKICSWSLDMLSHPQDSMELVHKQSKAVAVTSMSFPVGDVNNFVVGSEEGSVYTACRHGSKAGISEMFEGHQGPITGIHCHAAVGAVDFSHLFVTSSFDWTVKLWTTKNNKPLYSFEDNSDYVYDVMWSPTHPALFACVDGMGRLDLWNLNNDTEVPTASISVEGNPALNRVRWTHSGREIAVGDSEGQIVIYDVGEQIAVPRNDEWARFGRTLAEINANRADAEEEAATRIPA

Substance	percent removed from cytosol by immunodepletion of the bait [1]	percent removed from cytosol by immunodepletion of the bait [2]
cytoplasmic dynein heavy chain (from UniProt Q9JHU4 1-4644) (natural protein)	80%	–
dynactin subunit p150^Glued (from UniProt O08788 1-1281) (natural protein)	–	95%

— PMC2139871
